Substrate: NCCC(=O)N[C@@H](Cc1cnc[nH]1)C(=O)O
Assay: OPA fluorescence assay of liberated histidine, Michaelis-Menten fit
Assay type: biochemical, Homo sapiens
Conditions: pH 7, control without thiol
Excerpt: OPA fluorescence assay of liberated histidine, Michaelis-Menten fit on recombinant CN1 (rCN1)

B1: recombinant CN1 (rCN1) (Homo sapiens) (protein)
chain: SSPSPPPALLEKVFQYIDLHQDEFVQTLKEWVAIESDSVQPVPRFRQELFRMMAVAADTLQRLGARVASVDMGPQQLPDGQSLPIPPVILAELGSDPTKGTVCFYGHLDVQPADRGDGWLTDPYVLTEVDGKLYGRGATDNKGPVLAWINAVSAFRALEQDLPVNIKFIIEGMEEAGSVALEELVEKEKDRFFSGVDYIVISDNLWISQRKPAITYGTRGNSYFMVEVKCRDQDFHSGTFGGILHEPMADLVALLGSLVDSSGHILVPGIYDEVVPLTEEEINTYKAIHLDLEEYRNSSRVEKFLFDTKEEILMHLWRYPSLSIHGIEGAFDEPGTKTVIPGRVIGKFSIRLVPHMNVSAVEKQVTRHLEDVFSKRNSSNKMVVSMTLGLHPWIANIDDTQYLAAKRAIRTVFGTEPDMIRDGSTIPIAKMFQEIVHKSVVLIPLGAVDDGEHSQNEKINRWNYIEGTKLFAAFFLEMAQLH
notes: FLAG-tagged, secreted by transfected CHO cells, purified from supernatant; homodimer in vitro; dinuclear Zn site
Km: 800 ± 100 µM | Vmax: 0.07 µmol/min/mg

Reference: publication PMC6009930, “Allosteric inhibition of carnosinase (CN1) by inducing a conformational shift” (Journal of Enzyme Inhibition and Medicinal Chemistry, 2017)
